Values of other authors in PMC4464172.

Biological target: CAII (Homo sapiens) (UniProt P00918)
Assay: isothermal titration calorimetry

Kd: 160 nM
Substance: NBCe1-A (from UniProt Q9Y6R1)
